Like-named read-outs stand apart in the source and are kept apart here.
Legend:
SEC [1] = molecular target: the molecule itself; assay: SEC
SopB FL [2] = molecular target: T1, SopB FL (Escherichia coli F plasmid, UniProt P62558 1-323); assay: X-ray crystallography
T1 sequence: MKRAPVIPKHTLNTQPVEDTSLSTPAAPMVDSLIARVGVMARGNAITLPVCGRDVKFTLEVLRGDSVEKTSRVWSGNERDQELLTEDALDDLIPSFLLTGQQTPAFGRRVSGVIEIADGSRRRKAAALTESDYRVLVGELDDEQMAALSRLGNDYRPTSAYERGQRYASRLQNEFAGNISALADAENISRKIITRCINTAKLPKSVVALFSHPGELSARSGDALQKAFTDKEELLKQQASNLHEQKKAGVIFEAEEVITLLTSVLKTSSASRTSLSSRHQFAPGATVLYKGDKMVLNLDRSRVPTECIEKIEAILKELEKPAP

SopB(155-323) = molecular target: T2, SopB(155-323) (Escherichia coli F plasmid, UniProt P62558 155-323); assay: X-ray crystallography
T2 sequence: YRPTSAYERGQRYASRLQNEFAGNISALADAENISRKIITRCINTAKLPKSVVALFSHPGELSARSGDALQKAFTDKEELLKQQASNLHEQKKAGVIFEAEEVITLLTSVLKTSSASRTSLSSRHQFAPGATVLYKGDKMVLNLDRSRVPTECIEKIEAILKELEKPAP

SEC [3] = molecular target: the molecule itself; assay: SEC; remark: listed apart in the source
SopB FL [4] = molecular target: T1, SopB FL; assay: fluorescence polarization

B1: SopB(155–272) (domain or fragment, F plasmid, UniProt P62558 155-272, looked up)
chain: YRPTSAYERGQRYASRLQNEFAGNISALADAENISRKIITRCINTAKLPKSVVALFSHPGELSARSGDALQKAFTDKEELLKQQASNLHEQKKAGVIFEAEEVITLLTSVLKTSSASR
stoichiometry N (SEC [1]): 2

B2: sopC 18mer 5-bromouracil (dsDNA)
DNA 1: CTGGGACCATGGTCCCAG
DNA 2: CTGGGACCATGGTCCCAG
modifications: 5-bromouracil substitutions (positions not given)
binding result (SopB FL [2]): binds
binding result (SopB(155-323)): binds

LSSRHQFAPGATVLYKGDKMVLNLDRSRVPTECIEKIEAILKELEKPAP (domain or fragment, F plasmid, UniProt P62558 275-323, looked up) [SopB(275–323)]
stoichiometry N (SEC [3]): 2

B3: sopC 18mer (FP) (dsDNA)
DNA 1: CTGGGACCATGGTCCCAG
DNA 2: CTGGGACCATGGTCCCAG
Kd (SopB FL [4]): 223 ± 44 nM

B4: sopC 43mer (FP) (dsDNA)
DNA 1: GGTCTGATTATTAGTCTGGGACCACGGTCCCACTCGTATCGTC
DNA 2: GACGATACGAGTGGGACCGTGGTCCCAGACTAATAATCAGACC
Kd (SopB FL [4]): 324 ± 43 nM

Reference: article PMC2910045 (Nucleic Acids Research, 2010)
